Target: TDG (recombinant murine TDG) (Mus musculus, UniProt P56581 1-421)
Assay: competition; competes TDG-Sra1 and TDG-Neat1 complexes; higher affinity than lncRNA; BER buffer: 50 mM HEPES pH 8.0, 70 mM KCl, 0.5 mg/mL BSA, 7 mM MgCl2, 1 mM DTT, RNase inhibitor; RT, 15 min (buffer stated for lncRNA EMSA; 60 bp EMSA: 2 µM TDG, 2 µM substrate, RT 15 min)
Conditions: protein: recombinant; blunt, one G·U mismatch

Sequence of TDG (recombinant murine TDG) (P56581 whole entry): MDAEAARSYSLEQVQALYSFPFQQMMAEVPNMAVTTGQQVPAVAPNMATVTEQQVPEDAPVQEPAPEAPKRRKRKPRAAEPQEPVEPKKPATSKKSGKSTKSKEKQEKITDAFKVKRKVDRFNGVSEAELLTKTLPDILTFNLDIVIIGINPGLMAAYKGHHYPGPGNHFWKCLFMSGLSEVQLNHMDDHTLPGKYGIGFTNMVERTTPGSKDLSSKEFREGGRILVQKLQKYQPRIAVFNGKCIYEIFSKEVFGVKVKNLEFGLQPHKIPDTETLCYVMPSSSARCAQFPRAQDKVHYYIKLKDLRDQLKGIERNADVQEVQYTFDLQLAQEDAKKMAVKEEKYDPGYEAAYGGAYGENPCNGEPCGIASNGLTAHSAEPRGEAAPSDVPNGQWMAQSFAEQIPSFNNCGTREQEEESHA

B1: Subs60 G·U (unlabeled competitor) (dsDNA)
DNA 1: TAGACATTGCCCTCGAGGTACCATGGATCCGATGTCGACCTCAAACCTAGACGAATTCCG
DNA 2: CGGAATTCGTCTAGGTTTGAGGTUGACATCGGATCCATGGTACCTCGAGGGCAATGTCTA
modifications: dU at position 24 of strand 2
binding result: binds
